The text below walks through data of the DeepSol protein solubility set.

This data set in a line: soluble on expression in E. coli; label from the status in PepcDB or PDB records.
As for “MQAYTQTLIHRLDKLNRQRIERALALMDLQSQRVFHLIPALFQFNHPLIPGYFSADTPFGIHLFEANPIQQQFIDDAQLTLGEPLTPADNPAILGLYTMGSTSSIGQSTSSDLDIWVCVSAQMSCEARDNLSSKCLLITDWAKSQGVEANFFIMNEERFRHNHSEALSGENCGSSQHLLLLDEFYRSAVRLAGKRLLWQIVPPEMEECYDEYVHELCSNGYLNCNEWIDFGKLNRIPAEEYFGANLWQLYKSIDSPYKSVLKAILLEAYSWEYPHTQLLSIDSKRRFFADEPDLYGMDSYYQMLEKVTRYLVRIGDSTRLDLVRRCFYLKTHEKLSREPGVGSMPWRREALRELTSEWQWSADLIAELDNRRHWKVEQVKVVHHALLDALMLSYRNLIQFARRNDITSAISPQDISILARKLYAAFEVLPGKVTLLNPQISPDLHEPDLSFIEVCAGRTNKPGWYLYKQPLQAQRLIGQPYLEHNEYLSKLVAWAFFNGLITESTRLHAVVREAQLDIDKFYQMVSDLRNTFSLRKRRPTMQALANPCEISQLAMFINFEHDPTSELSGKALKVDLKNIDIFSFGAEQKCLVGSVDLVYRNSWQEVRTLHFEGQTAMLDALKTVLGKMHQDALPPESVDVFCYSKNLRGVMRNLVYQLLAECIDLRLKPMEQEKRRRFKALRMGDQMYGLFFERRGVSVQKLENSVDFYRSISTNKLKGSPLLMLDRDQDYPLPAVVDSFASEGLVQFFFEDTEKGFNIYVLDEANRVEVYHQFNGEKDEMIASVNSFYTSMLDDSNKLGAKSINFNLPQYYQIIHPEEGETYVVPYRNDSAVYSKPSQVVNA”, the “soluble on expression in E. coli” value is “not soluble”.

For the sequence “MSTNALQPKTIGGNNNILEVIRLKRADLRKSDRKVAELVLADPKRVINATIAEAAEWAEVSQPTVIRFCASIGCQGYQDFKLRLAQSLALGMSATHSVIDADDTPAKVSEKIFDYTITSLDWVRNHLDPVQVDRAVDALAKANRIEFFGFGASGIVARDAQQKFPLFGVPCGAETDAHQQIMVVSMLKPGDVAVVISNTGATLAIIETARRARESGCQVIGIVGSDGPLVEFCDIVLMVETLENTNIYTPTISRIAALTVVDILSTSVALRRGAEHVDLFTGMKRNLRYLRTSTET”, the “soluble on expression in E. coli” value is reported as “not soluble”.

In the case of “MGSDKIHHHHHHMSPREVAAPHEVKARLYILDTNVLMHDPSALFRFEEHDILLPMIVLEELDQHKKGLSEQARNVRQVSRYLDEMLTDTADLDRGLVLPYAQGRLYFQTAAHQQALPEDLAGGKADHEILAVTLALQNRHPEKDVILVSKDINLRIKGRTLGIRVEDYQNDRALDDVDLLYTGAETLSADFWDLHSRDLDAWQESGRSYYKISGPAIQRWHSNQFIAINVEEGAPEDFAAIVREVRPEHAIIERITDYRSDRHAVWGILARNPEQNFALNLLMDPDIDFVTLLGHAGTGKTLLTLAAALHQIFEQKRYSEVIITRATVPVGDEIGFLPGTEEEKMLPWMGALEDNLEILARGSDEGGSWGRSATQDLINKRIRVKSMSFMRGRTFLEKFVIIDEAQNLTSKEMKTLITRAGPGTKIVCLGNIAQIDTPYLTETTSGLTYVVDRFKDWAYSGHITLRRGERSRLADFANDAL”, the “soluble on expression in E. coli” value was “not soluble”.

“MKEKIPFYNEKEFHDMVKKTKKGTFSGWYIINKNNNSVEFSGSFNRQFKLNKPVIPVNTEYVTRKEFNEYKDSNDQRLTKIETELKSQGQRIQVVEDKVDRLTEVVMVQSQQIKTQGEAMNARMDRFESLVLKSLESIGNTLTDFGKRLDVIETRLDKIDPPK”: the “soluble on expression in E. coli” value is on record as “soluble”.

As for “MSHVQAVIFDAFGTITRIENARHPFRQLLKLGIAQGRRPKPDDASMLMRHPWGLAQAADHFGIDVTPAELARIQAELDAEVASIQPFADALACIEALQAHGLKVAVCSNLARPYGAAVKRIFPGLESYGFSYEIGTLKPDRRIYEAALTELAVDACKVWMIGDSQRCDRDGPIALGIKGHYLNRTGAGSPSDFRDLMAFKHSVFESRSP”, the “soluble on expression in E. coli” value was “not soluble”.

As for “MHIPENLYVVGTMNIADRSLALVDLALRRRFAFVGLEPRLGQVWRDWVVKECAVDPGLVADIERRIAELNDQIAADARLGKQFRIGHSYVTPAHRLEAGDTKKWFLQVVETEIGPLLDEYWFDAPDEAQKAIARLTQGLEHHHHHH”, the “soluble on expression in E. coli” value is on record as “not soluble”.

With “MSEPLIVGIRHHSPACARLVKSLIESQRPRYVLIEGPADFNDRVDELFLAHQLPVAIYSYCQYQDGAAPGRGAWTPFAEFSPEWQALQAARRIQAQTYFIDLPCWAQSEEEDDSPDTQDESQALLLRATRMDNSDTLWDHLFEDESQQTALPSALAHYFAQLRGDASGDALNRQREAFMARWIGWAMQQNNGDVLVVCGGWHAPALAKMWRECPQKINKPELPSLADAVTGCYLTPYSEKRLDVLAGYLSGMPAPVWQNWCWQWGLQKAGEQLLKTILTRLRQHKLPASTADMAAAHLHAMALAQLRGHTLPLRTDWLDAIAGSLIKEALNAPLPWSYRGVIHPDTDPILLTLIDTLAGDGFGKLAPSTPQPPLPKDVTCELERTAISLPAELTLNRFTPDGLAQSQVLHRLAILEIPGIVRQQGSTLTLAGNGEERWKLTRPLSQHAALIEAACFGATLQEAARNKLEADMLDAGGIGSITTCLSQAALAGLASFSQQLLEQLTLLIAQENQFAEMGQALEVLYALWRLDEISGMQGAQILQTTLCATIDRTLWLCESNGRPDEKEFHAHLHSWQALCHILRDLHSGVNLPGVSLSAAVALLERRSQAIHAPALDRGAALGALMRLEHPNASAEAALTMLAQLSPAQSGEALHGLLALARHQLACQPAFIAGFSSHLNQLSEADFINALPDLRAAMAWLPPRERGTLAHQVLEHYQLAQLPVSALQMPLHCPPQAIAHHQQLEQQALASLQNWGVFHV”, the “soluble on expression in E. coli” value is given as “not soluble”.

In the case of “MELRIFFDGNCPLCSAEMRQLKARDPDDHIELVDLNAENFSSRFSYIDKDYANTILHGETASGQVLLGLDVTCKAWALTGTRPWIQVLRLPLIKPLADWCYLRFAKHRYRISYLLTGKARCDSQCQLPKLEHHHHHH”, the “soluble on expression in E. coli” value is given as “soluble”.

For the sequence “MRGSHHHHHHTDPALRASVRLVLAKGREKSLLRRHPWVFSGAVARMEGKASLGETIDIVDHQGKWLARGAYSPASQIRARVWTFDPSESIDIAFFSRRLQQAQKWRDWLAQKDGLDSYRLIAGESDGLPGITIDRFGNFLVLQLLSAGAEYQRAALISALQTLYPECSIYDRSDVAVRKKEGMELTQGPVTGELPPALLPIEEHGMKLLVDIQHGHKTGYYLDQRDSRLATRRYVENKRVLNCFSYTGGFAVSALMGGCSQVVSVDTSQEALDIARQNVELNKLDLSKAEFVRDDVFKLLRTYRDRGEKFDVIVMDPPKFVENKSQLMGACRGYKDINMLAIQLLNEGGILLTFSCSGLMTSDLFQKIIADAAIDAGRDVQFIEQFRQAADHPVIATYPEGLYLKGFACRVMGLCGR”, the “soluble on expression in E. coli” value was “soluble”.

Consider “NLHLLEYLHILPLDKIGIPKFAPKLDRKKHGDLDRPNLIYPADEQIYIHVYPDKNDMRNFYIPIEPTLLTGVDELLKEVEIRLVDYITDIDF”, for which the “soluble on expression in E. coli” value is given as “not soluble”.

As to “AGWQSYVDNLMCDGCCQEAAIVGYCDAKYVWAATAGGVFQSITPIEIDMIVGKDREGFFTNGLTLGAKKCSVIRDSLYVDGDCTMDIRTKSQGGEPTYNVAVGRAGRALVIVMGKEGVHGGTLNKKAYELALYLRRSDV”, the “soluble on expression in E. coli” value was “soluble”.

With “MGSDKIHHHHHHMVKGLYTAHTGMVNEMKRMDVLANNLANSDTYGFKKEGTTSHSFKNELAIKIKDTSNYGLHKNLGSMTYGVHLGETYTDWDEGSFKVTDNPTDLAIGGKGFFAVAFTDKSGQTSVKYTRDGAFKVNADGYLVTADGDHVLNATGALSGDGGEANWVKVDPNEKFSVNSLGYITQNNQLVGTIGVVDVDNYDYIEKYGENLYNLTAGGNIIASDAEIEQGALETSNVNVVNEMVLG”, the “soluble on expression in E. coli” value is “not soluble”.

As to “MDLFTRKDGTSIHYSTLGEGYPIVLIHTVLDNYSVFNKLAAELAKSFQVVLIDLRGHGYSDKPRHIEIKDFSDDIVELLKYLYIEEVAFVCHEMGGIIGADISVRYPEFTSSLTLVNPTSIEGELPEERLFRKYAHIIRNWDPEKQDKFLNKRKYYRPRKMNRFLKHVVDTNEISTKEEIQAVKEVFKNADISQTYRNVVVPTKIIAGEFGERTTRLEAKEVADLIQNADFEVYQESSAFPFVEEQERFVEDTAAFINKHHDEKHV”, the “soluble on expression in E. coli” value was “not soluble”.

Regarding “MASEALHQVGDGEEAVLKKENFNMMNALDQLPKPFPNPKSMNRTVTTKGLPLASKGNLVNFLEDDTINLLKPLPVEDSDCSSDETSISAFSSTLLNPIKLAVTQPNSSFFAGMLEGELNKLSFSPMAKNAENEDLALGPCPCPSKSQMATRGLLDLDNPELETETSSTHSESSVVVDLPDTPFIFEHTVNNSTAVISWTYALGKQPVSFYQLLLQEVAKTQENELPEAKNRPWIFNKILGTTVKLMELKPNTCYCLSVRAANTAGVGKWCKPYKFATLATDFSSFPENYPIQITVRRKEPRQKIVSIGPEEMRRLEDLEYLFPC”, the “soluble on expression in E. coli” value is listed as “soluble”.

Turning to “MGSDKIHHHHHHMNNQVKRRKTKAVNVGKVQVGGGAPVAVQSMTCTDTRNVRETIEQIEALEKAGCEIVRVAVPDAEAASVLGKIKKSISIPLIADIHFNHHYALMAIEQDVDGIRINPGNVGKKNIAEIVRAAKDHNTVIRIGVNAGSLEKELQEKHGGPTAHALTESALNNLAFVEDMGFDRIKLSLKSSHVPTMIDAYRLVADKTDYPLHLGVTEAGTLVTSAVKSSIGMGLLLHEGIGDTIRVSVTGSPVLEIGIAYDILRALDIRRVGPDIISCPTCGRCEIDLFGLVEQVEHSLSGMKDYMKIALMGCVVNGPGEAAEADVGIAGGRGMGLLFKKGQVIRKIREEEFVKALLQEIQEMTGE”, the “soluble on expression in E. coli” value is recorded as “not soluble”.

As for “MAHHHHHHMDGAYGMRTVLNSSRLEEEPKYTLNPADLPHSSMNANNMMNGAVLTNGYHTSDYVINRESYPPDMMPQFKIDQGGSAYNNTMPMNSIIHTDPNESINMQGMKTCLETTTGFDSYRNLMNYNNTQNTIQASQVPFHLDDYNSGADLMYMSHPHTGDNFSPDYLNNLRSTETDPMTYGNNFNIPNGQFNSMLGENNNYNSLPYSMPIFENMNNPQMYMQQMNSKQALSGPTQKMDHTCSIRKMPAVSKRKIKPKKFFPCC”, the “soluble on expression in E. coli” value is “soluble”.

Take “MKQHCQKQSTARSTKLQYLAENQNDQPRLLAGSLSHGDSTTGPIKYKDGHQKRTTVVWDGQGTIRDETKSNIIKLTYLYLFPSCGAGSVRELVPFSSYHSFIVTHSTFNITMIALQSKCILPPCLPL”: the “soluble on expression in E. coli” value is “not soluble”.

Regarding “MTIEKIFTPQDDAFYAVITHAAGPQGALPLTPQMLMESPSGNLFGMTQNAGMGWDANKLTGKEVLIIGTQGGIRAGDGRPIALGYHTGHWEIGMQMQAAAKEITRNGGIPFAAFVSDPCDGRSQGTHGMFDSLPYRNDAAIVFRRLIRSLPTRRAVIGVATCDKGLPATMIALAAMHDLPTILVPGGATLPPTVGEDAGKVQTIGARFANHELSLQEAAELGCRACASPGGGCQFLGTAGTSQVVAEALGLALPHSALAPSGQAVWLEIARQSARAVSELDSRGITTRDILSDKAIENAMVIHAAFGGSTNLLLHIPAIAHAAGCTIPDVEHWTRINRKVPRLVSVLPNGPDYHPTVRAFLAGGVPEVMLHLRDLGLLHLDAMTVTGQTVGENLEWWQASERRARFRQCLREQDGVEPDDVILPPEKAKAKGLTSTVCFPTGNIAPEGSVIKATAIDPSVVGEDGVYHHTGRVRVFVSEAQAIKAIKREEIVQGDIMVVIGGGPSGTGMEETYQLTSALKHISWGKTVSLITDARFSGVSTGACFGHVSPEALAGGPIGKLRDNDIIEIAVDRLTLTGSVNFIGTADNPLTPEEGARELARRQTHPDLHAHDFLPDDTRLWAALQSVSGGTWKGCIYDTDKIIEVINAGKKALGI”, the “soluble on expression in E. coli” value is on record as “not soluble”.

For the sequence “MRINFEKANSNHINIIFSWLKEPFIQEFWDNTQAHKDDILNFINGRTEPSSYADGKYVYWIASGNGHPFAMLMTIQETSEDEIDDIKLINLSKTGHSYGIDYMIGDKNYFGIGYGARTLIEFIDFFIKEVDPKADTFLIDPASDNPRAKHVYIKAGFEYVADFLMSGDVSGAGKLHHLLIKRIGLIK”, the “soluble on expression in E. coli” value is on record as “not soluble”.
